Measured values: the supplement of paper PMC10724198
± gives the standard deviation of the averaged measurements.

Key:
Saccharomyces cerevisiae [1] = assay: protein stability index of tFT-peptide fusion (C-terminal peptide) (PSI (0-1 scale)); higher = more stable (slower turnover)
Protocol: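 MPS profiling in S. cerevisiae of the tFT-X12 degron library: putative degron peptides plus stable controls, 12 aa, fused to the C-terminus of a sfGFP-mCherry timer. Cells are FACS-sorted into 8 mCherry/sfGFP bins and deep-sequenced. PSI runs from 0 (unstable) to 1 (stable). Backgrounds are wild type, das1Δ and doa10Δ at 30 °C, and wild type, das1Δ, cdc34-1 and cdc53-1 at 37 °C; 2-3 technical replicates each.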

Saccharomyces cerevisiae [2] = assay: as above; details: genetic background: wild type; temperature: 30 C
[3] = genetic background: cdc34-1, temperature: 37 C
[4] = genetic background: cdc53-1, temperature: 37 C
[5] = genetic background: das1 deletion, temperature: 30 C
[6] = genetic background: das1 deletion, temperature: 37 C
[7] = genetic background: doa10 deletion, temperature: 30 C
[8] = genetic background: wild type, temperature: 30 C
[9] = genetic background: wild type, temperature: 37 C
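Also: PSI is a weighted mean of sequencing reads over stability bins, variants kept only with over 10 reads, mCherry proximal and sfGFP distal, peptide attached via GGGS linker.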

Sequence	protein stability index (Saccharomyces cerevisiae [1]; [3])	protein stability index (Saccharomyces cerevisiae [1]; [4])	protein stability index (Saccharomyces cerevisiae [1]; [5])	protein stability index (Saccharomyces cerevisiae [1]; [6])	protein stability index (Saccharomyces cerevisiae [1]; [7])	protein stability index (Saccharomyces cerevisiae [1]; [8])	protein stability index (Saccharomyces cerevisiae [1]; [9])	protein stability index (Saccharomyces cerevisiae [2])
DALHPCIIYLTC	0.594 ± 0.049	0.565 ± 0.015	0.328 ± 0.035	0.609 ± 0.00096	0.217 ± 0.0055	0.254 ± 0.022	0.466 ± 0.013	0.341 ± 0.013
SRFFSSSFYRLC	0.675 ± 0.036	0.7576 ± 0.0075	0.661 ± 0.012	0.777 ± 0.018	0.176 ± 0.0056	0.198 ± 0.036	0.485 ± 0.042	0.324 ± 0.046
FILLFGFSHWVW	0.449 ± 0.033	0.523 ± 0.023	0.375 ± 0.028	0.5333 ± 0.0017	0.364 ± 0.019	0.37 ± 0.03	0.476 ± 0.036	0.4316 ± 0.0023
YLLTAFLSAFNP	0.554 ± 0.054	0.683 ± 0.018	0.543 ± 0.019	0.55 ± 0.0074	0.529 ± 0.041	0.522 ± 0.031	0.537 ± 0.02	0.495 ± 0.11
GSVLWISCLIFC	0.157 ± 0.019	0.267 ± 0.0085	0.189 ± 0.035	0.349 ± 0.0061	0.1641 ± 0.0013	0.18 ± 0.027	0.347 ± 0.038	0.3 ± 0.026
LWFGAWWLGAVG	0.318 ± 0.031	0.361 ± 0.0043	0.411 ± 0.0063	0.336 ± 0.0087	0.4166 ± 0.0011	0.421 ± 0.0065	0.32 ± 0.013	0.457 ± 0.0053
VQLLTRLKTPHP	0.6608 ± 0.0013	0.7443 ± 0.0035	0.656 ± 0.016	0.719 ± 0.015	0.636 ± 0.021	0.65 ± 0.024	0.716 ± 0.021	0.733 ± 0.026
TVCSWSALSRFM	0.691 ± 0.042	0.7558 ± 0.0062	0.6449 ± 0.0016	0.76419 ± 0.00033	0.631 ± 0.032	0.627 ± 0.015	0.705 ± 0.0097	0.587 ± 0.15
RGAVRVAWYPVL	0.699 ± 0.00098	0.737 ± 0.01	0.64 ± 0.011	0.7511 ± 0.0011	0.492 ± 0.019	0.517 ± 0.0095	0.684 ± 0.011	0.508 ± 0.095
RPPPYSPRLFHN	0.469 ± 0.0049	0.706 ± 0.031	0.67 ± 0.031	0.75 ± 0.01	0.0941 ± 0.065	0.129 ± 0.023	0.179 ± 0.067	
CLVISVLFGVVA	0.2376 ± 0.00026	0.269 ± 0.067	0.218 ± 0.034	0.382 ± 0.0091	0.1782 ± 0.0014	0.21 ± 0.016	0.326 ± 0.0065	
QRAVGLANFTIK	0.672 ± 0.065	0.7512 ± 0.0062	0.647 ± 0.043	0.7328 ± 0.0028	0.646 ± 0.048	0.669 ± 0.032	0.709 ± 0.018	
FLPPVHRCFSIF	0.671 ± 0.037	0.742 ± 0.013	0.653 ± 0.022	0.745 ± 0.021	0.172 ± 0.014	0.193 ± 0.032	0.3915 ± 0.0028	
LVCSLLVPSSFF	0.679 ± 0.0081	0.7 ± 0.074	0.634 ± 0.016	0.722 ± 0.0063	0.667 ± 0.035	0.645 ± 0.011	0.7039 ± 0.0056	
GFLFVLCAWGFF	0.178 ± 0.017	0.321 ± 0.039	0.227 ± 0.022	0.386 ± 0.019	0.21 ± 0.0069	0.236 ± 0.0048	0.318 ± 0.0066	
WLISLLVQPVFL	0.295 ± 0.0052	0.3167 ± 0.0022	0.276 ± 0.029	0.4053 ± 0.0021	0.233 ± 0.0031	0.273 ± 0.02	0.37 ± 0.0047	
VFYWGGVLCGWG	0.337 ± 0.035	0.502 ± 0.074	0.309 ± 0.03	0.514 ± 0.014	0.297 ± 0.019	0.326 ± 0.036	0.439 ± 0.027	
PPPPPPPAPASP			0.665 ± 0.13	0.68 ± 0.048	0.553 ± 0.17	0.635 ± 0.089	0.629 ± 0.032	
GPPVPLSPPLSP	0.701 ± 0.042	0.695 ± 0.045	0.35 ± 0.024	0.5534 ± 0.0029	0.33 ± 0.0094	0.341 ± 0.014	0.532 ± 0.039	
TGGGGRVSLGGG	0.337 ± 0.053	0.427 ± 0.032	0.384 ± 0.021	0.44 ± 0.022	0.374 ± 0.013	0.372 ± 0.0084	0.416 ± 0.044	
APPRLPLLSCSQ	0.652 ± 0.021	0.712 ± 0.0095	0.661 ± 0.05	0.6939 ± 0.00016	0.684 ± 0.045	0.642 ± 0.044	0.699 ± 0.014	
RSRNSEYILVYN	0.655 ± 0.018	0.672 ± 0.039	0.397 ± 0.045	0.6343 ± 0.0031	0.318 ± 0.012	0.391 ± 0.014	0.66 ± 0.025	

Sequence	protein stability index (Saccharomyces cerevisiae [1]; [3])	protein stability index (Saccharomyces cerevisiae [1]; [4])	protein stability index (Saccharomyces cerevisiae [1]; [5])	protein stability index (Saccharomyces cerevisiae [1]; [6])	protein stability index (Saccharomyces cerevisiae [1]; [7])	protein stability index (Saccharomyces cerevisiae [1]; [8])	protein stability index (Saccharomyces cerevisiae [1]; [9])	protein stability index (Saccharomyces cerevisiae [2])
KQSGLQIKRRKL	0.711 ± 0.043	0.75156 ± 0.00069	0.617 ± 0.019	0.7734 ± 0.0051	0.639 ± 0.07	0.7 ± 0.056	0.763 ± 0.061	
GGGWGGRWGRLC	0.639 ± 0.047	0.754 ± 0.0091	0.6543 ± 0.0029	0.75462 ± 8e-05	0.193 ± 0.021	0.218 ± 0.035	0.479 ± 0.0076	
APPSRRLTLRLA	0.577 ± 0.039	0.696 ± 0.019	0.6614 ± 0.0066	0.709 ± 0.017	0.142 ± 0.003	0.145 ± 0.0058	0.32 ± 0.044	
VEVRVRCVGGRV								0.703 ± 0.068
NLRRPLYYNGSV								0.757 ± 0.076
KKTIEQNNLTIV								0.7091 ± 0.002
VGSLCSRLGRRS								0.765 ± 0.13
NKFETCIANMYI								0.718 ± 0.058
NGREHHLESSYN								0.654 ± 0.038
AKETSINKKALI								0.6903 ± 0.0047
GWCRSYVAFGVY								0.64 ± 0.052
DWSGTISVSSLR								0.672 ± 0.1
KIRINKKVKNKK								0.671 ± 0.005
RLHPPRPLTPPL								0.683 ± 0.0087
HSRKVHGLWALR								0.695 ± 0.0081
LQLKNTNKNKTT								0.666 ± 0.047
SSSHIRTDLSHF								0.6852 ± 0.0065
FTQDYRRKTMSH								0.604 ± 0.064
VGWGECPKVECV								0.599 ± 0.1
CPPARLLPHPPA								0.733 ± 0.013
ASLTPFFLCSIF								0.649 ± 0.0073
RDKKMKHIKDKR								0.79 ± 0.11

Sequence	protein stability index (Saccharomyces cerevisiae [1]; [3])	protein stability index (Saccharomyces cerevisiae [1]; [4])	protein stability index (Saccharomyces cerevisiae [1]; [5])	protein stability index (Saccharomyces cerevisiae [1]; [6])	protein stability index (Saccharomyces cerevisiae [1]; [7])	protein stability index (Saccharomyces cerevisiae [1]; [8])	protein stability index (Saccharomyces cerevisiae [1]; [9])	protein stability index (Saccharomyces cerevisiae [2])
FLPPSRFSPLRL								0.708 ± 0.11
PTLLRRPLPNLG								0.73 ± 0.02
CCGQRYACVFQT								0.651 ± 0.029
PPPLDSPPPPPP								0.664 ± 0.019
AWGGSWWSLGGM								0.6715 ± 0.0056
VGGGPVWREPGT								0.796 ± 0.025
SLMLDGRSTKAA								0.6912 ± 0.0035
SFDPCLCTLSLL								0.6961 ± 0.0049
CPLPPSTPPLRL								0.709 ± 0.0098
WFLVQQCGQMDR								0.711 ± 0.022
PPPLLPVPQPLF								0.672 ± 0.087
CWGGWGLWLLEV								0.516 ± 0.023
SEVFAVGITGVI								0.6788 ± 0.0039
AALSNRGIHWWK								0.732 ± 0.018
LGCKGQLFWYIW								0.6327 ± 0.003
SELVARGGGGGW								0.728 ± 0.07
SLPPPPSQLRPL								0.726 ± 0.015
SYCRPPPLPGLP								0.628 ± 0.038
CGLRVAGVLCWG								0.465 ± 0.05
PLRSLNHSGRPP								0.641 ± 0.06
RPRKPGLACKHL								0.652 ± 0.034
PPPPPPPHHSPP								0.722 ± 0.047

Sequence	protein stability index (Saccharomyces cerevisiae [1]; [3])	protein stability index (Saccharomyces cerevisiae [1]; [4])	protein stability index (Saccharomyces cerevisiae [1]; [5])	protein stability index (Saccharomyces cerevisiae [1]; [6])	protein stability index (Saccharomyces cerevisiae [1]; [7])	protein stability index (Saccharomyces cerevisiae [1]; [8])	protein stability index (Saccharomyces cerevisiae [1]; [9])	protein stability index (Saccharomyces cerevisiae [2])
MTMGNWLRLKRR								0.62 ± 0.024
LRCPLPFFSAFF								0.704 ± 0.11
LVLERKVDSKRK								0.761 ± 0.084
DNAFATAYWIVV								0.647 ± 0.054
STNARRLWGRGV								0.699 ± 0.033
EINIMKIIYRKI								0.666 ± 0.044
SGGRGAILVSVV								0.647 ± 0.078
DTDHSSNCELPG								0.696 ± 0.083
LSGVSGALVFVG								0.676 ± 0.047
VGGGRGGVVRSG								0.654 ± 0.1
VPSLAVPPEGSV								0.678 ± 0.06
PPLRPAPPPPLS								0.7 ± 0.12
RCLGFSACPATY								0.809 ± 0.14
CQFPSLPLPSFM								0.66 ± 0.032
RFAPCSPPADPS								0.68 ± 0.019
GGGAGERMRDGR								0.67 ± 0.026
SHGELLLGPVFL								0.748 ± 0.009
DSSPIESAVAPS								0.716 ± 0.023
GRRGWFESSIRR								0.731 ± 0.014
